Measured values from paper doi:10.1101/2025.09.09.675230.

Molecular target: Measles virus fusion protein (F) ectodomain, prefusion-stabilized with E170G and E455G (FECT 2M) (Measles virus strain Ichinose-B95a)
Test: cryo-EM structure

## Measles virus fusion protein (F) ectodomain, prefusion-stabilized with E170G and E455G (FECT 2M) (domain or fragment)
  stoichiometry N: 3
